First the molecules themselves.
B1: Tumor necrosis factor receptor superfamily member 11B (Mus musculus), O08712 (parent)
chain: MNKWLCCALLVLLDIIEWTTQETLPPKYLHYDPETGHQLLCDKCAPGTYLKQHCTVRRKTLCVPCPDHSYTDSWHTSDECVYCSPVCKELQSVKQECNRTHNRVCECEEGRYLEIEFCLKHRSCPPGSGVVQAGTPERNTVCKKCPDGFFSGETSSKAPCIKHTNCSTFGLLLIQKGNATHDNVCSGNREATQKCGIDVTLCEEAFFRFAVPTKIIPNWLSVLVDSLPGTKVNAESVERIKRRHSSQEQTFQLLKLWKHQNRDQEMVKKIIQDIDLCESSVQRHLGHSNLTTEQLLALMESLPGKKISPEEIERTRKTCKSSEQLLKLLSLWRIKNGDQDTLKGLMYALKHLKTSHFPKTVTHSLRKTMRFLHSFTMYRLYQKLFLEMIGNQVQSVKISCL

The values that follow come from IntAct's records for PubMed 23039992.

In one assay the parent is B1. As to conditions: with Tnfsf11, O35235-1.
Tnfsf11, O35235-1, sequence (O35235 whole entry): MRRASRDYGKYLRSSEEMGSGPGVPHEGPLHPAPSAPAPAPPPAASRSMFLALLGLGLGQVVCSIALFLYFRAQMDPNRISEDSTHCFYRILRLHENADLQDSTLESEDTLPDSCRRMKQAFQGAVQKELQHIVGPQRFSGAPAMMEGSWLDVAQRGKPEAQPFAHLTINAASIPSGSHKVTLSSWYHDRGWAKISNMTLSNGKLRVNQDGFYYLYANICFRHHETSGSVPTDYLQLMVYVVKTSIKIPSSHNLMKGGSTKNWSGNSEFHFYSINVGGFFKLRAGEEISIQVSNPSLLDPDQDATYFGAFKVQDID
With MNKWLCCALLVLLDIIEWTTQETLPPKYLHYDPETGHQLLCDKCAPGTYLKQHCTVRRKTLCVPCPDHSYTDSWHTSDECVYCSPVCKELQSVKQECNRTHNRVCECEEGRYLEIELCLKHRSCPPGSGVVQAGTPERNTVCKKCPDGFFSGETSSKAPCIKHTNCSTFGLLLIQKGNATHDNVCSGNREATQKCGIDVTLCEEAFFRFAVPTKIIPNWLSVLVDSLPGTKVNAESVERIKRRHSSQEQTFQLLKLWKHQNRDQEMVKKIIQDIDLCESSVQRHLGHSNLTTEQLLALMESLPGKKISPEEIERTRKTCKSSEQLLKLLSLWRIKNGDQDTLKGLMYALKHLKTSHFPKTVTHSLRKTMRFLHSFTMYRLYQKLFLEMIGNQVQSVKISCL [F117L], the “effect of a mutation on the interaction” value is reported as “increasing interaction strength”.

The variants in the next assay derive from B1. The conditions noted are these: with Tnfsf11, O35235-1. The source holds these as a separate data set.
MNKWLCCALLVLLDIIEWTTQETLPPKYLHYDPETGHQLLCDKCAPGTYLKQHCTVRRKTLCVPCPDHSYTDSWHTSDECVYCSPVCKELQSVKQECNRTHNRVCECEEGRYLEIEACLKHRSCPPGSGVVQAGTPERNTVCKKCPDGFFSGETSSKAPCIKHTNCSTFGLLLIQKGNATHDNVCSGNREATQKCGIDVTLCEEAFFRFAVPTKIIPNWLSVLVDSLPGTKVNAESVERIKRRHSSQEQTFQLLKLWKHQNRDQEMVKKIIQDIDLCESSVQRHLGHSNLTTEQLLALMESLPGKKISPEEIERTRKTCKSSEQLLKLLSLWRIKNGDQDTLKGLMYALKHLKTSHFPKTVTHSLRKTMRFLHSFTMYRLYQKLFLEMIGNQVQSVKISCL [F117A]: the “effect of a mutation on the interaction” value was “increasing interaction strength”.
